Experimental data taken from patent US20240360224A1 (ORIONIS BIOSCIENCES, published 2024).
Numbering of substitutions follows the chain as printed. Names and notes keep the numbering of the source.

Columns and labels:
human Clec9A = target: T1, human Clec9A (human, UniProt Q6UXN8 1-241); assay: flow cytometry on HEK293-T cells transfected with human Clec9A; His-tagged VHH at 2 µg/ml, anti-His FITC antibody; single concentration
T1 construct: Expressed on transfected CHO-K1, HEK293-T and HL116 cells, or native on human dendritic cells; also called hClec9A; C-type lectin domain family 9 member A
T1 sequence (Q6UXN8 whole entry, the tested form may be a part): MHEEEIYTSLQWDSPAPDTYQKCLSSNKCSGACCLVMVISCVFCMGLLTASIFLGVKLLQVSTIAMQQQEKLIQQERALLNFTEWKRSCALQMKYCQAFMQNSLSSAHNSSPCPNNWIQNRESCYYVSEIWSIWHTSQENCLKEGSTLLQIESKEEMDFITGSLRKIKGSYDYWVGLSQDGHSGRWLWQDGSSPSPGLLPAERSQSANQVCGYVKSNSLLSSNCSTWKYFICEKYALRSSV
Protocol: The binding characteristics of various VHHs (as described in Example 1) were tested by flow cytometry. HEK293-T cells were transfected with a human Clec9A expression plasmid and stained with the His-tagged VHHs at 2 μg/ml, followed by staining with an anti-His Fitc conjugated antibody. Binding was measured by detecting cellular fluorescence via flow cytometry.

[1] = target: T2, biotinylated human CLEC9A (human, UniProt Q6UXN8 57-241, limits assumed, biotinylated (site not stated)); assay: BLI (Octet), biotinylated human CLEC9A on streptavidin sensor, VHH at 50, 100 and 200 nM, global analysis
T2 construct: Captured on a streptavidin sensor for BLI
T2 sequence (Q6UXN8 57-241 limits assumed): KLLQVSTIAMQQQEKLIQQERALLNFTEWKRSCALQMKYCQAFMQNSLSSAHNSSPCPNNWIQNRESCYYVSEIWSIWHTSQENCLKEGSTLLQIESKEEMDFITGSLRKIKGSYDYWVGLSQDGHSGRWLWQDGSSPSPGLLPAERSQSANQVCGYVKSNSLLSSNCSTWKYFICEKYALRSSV
Protocol: Affinities of the AFN's for Clec9A were determined using the bio-layer interferometry technology on an Octet system (ForteBio).

B1: 3LEC 23 (VHH)
VHH: QVQLQESGGGLVQTGGSLRLSCAASGSIFNINSMGWYRQAPGKQRELVAAITVGGRLAYADSAKGRFTISKESARNTVHLQMSSLKPEDTAVYYCTIWAADYQQYWGQGTQVTVSS
notes: Entry includes C-terminal AAA-HA-His6 (pMECS)
B1: binds (human Clec9A).

B2: 3LEC 15 (VHH)
VHH: QVQLQESGGGLVQAGGSLRLSCAASGSVFSINAMGWYRQAPEKQRELVAAITTQGRTTYEDSVKGRFTISRDGAQNTVYLQMDSLKPEDTAVYYCKAWTAKDDYWGKGTQVTVSS
notes: as for B1
B2: binds (human Clec9A).

B3: 2LEC 89 (VHH)
VHH: QVQLQESGGGLVQAGGSLRLSCAASGSIFSINSMGWYRQAPGKQRELVAAITNGGRTTYADSVKGRFTISRDNAKNTVYLQMDSLKPEDTAVYYCKGFSLTDDYWGQGTQVTVSS
notes: as for B1
B3: binds (human Clec9A).

B4: 3LEC 22 (VHH)
VHH: QVQLQESGGGRVQPGGSLRLSCAAIGSIFEINSIGWYRQAPGKQRELVAAITSGGITNYANSVQGRSTISRDNVNNTVYLQMNSLKPEDSAVYYCKGFTGWGKEDYWGQGTQVTVSS
notes: as for B1
B4: binds (human Clec9A).

B5: R1CHCL50 (wild type) (VHH)
VHH: QVQLVESGGGLVHPGGSLRLSCAASGSFSSINVMGWYRQAPGKERELVARITNLGLPNYADSVTGRFTISRDNAKNTVYLQMNSLKPEDTAVYYCYLVALKAEYWGQGTQVTVSS
notes: pHEN6C periplasmic expression with C-terminal his6 tag
In the case of B5, the Kd [1] is reported as 1.72 nM, the koff [1] is reported as 0.000705 s⁻¹ and the kon [1] is reported as 410000 M⁻¹ s⁻¹.

B6: R1CHCL50_opt3 (E1D-A74S-K83R-Q108L-T64K) (VHH)
VHH: B5 VHH with Q1D, T64K, A74S, K86R, Q110L
notes: The entry already carries the named substitutions; pHEN6C, C-terminal his6 tag
Work on B6 yielded a Kd [1] of 1.79 nM, a koff [1] of 0.000998 s⁻¹ and a kon [1] of 559000 M⁻¹ s⁻¹.

B7: R1CHCL50_opt1 (E1D-A74S-K83R-Q108L) (VHH)
VHH: B5 VHH with Q1D, A74S, K86R, Q110L
notes: as for B6
B7 showed a Kd [1] of 1.29 nM, a koff [1] of 0.000635 s⁻¹ and a kon [1] of 492000 M⁻¹ s⁻¹.

B8: R1CHCL50_opt2 (E1D-A74S-K83R-Q108L-H13Q) (VHH)
VHH: B5 VHH with Q1D, H13Q, A74S, K86R, Q110L
notes: as for B6
For B8, the Kd [1] was 1.15 nM, the koff [1] was 0.000723 s⁻¹ and the kon [1] was 630000 M⁻¹ s⁻¹.

B9: R1CHCL50_opt4 (E1D-A74S-K83R-Q108L-H13Q-T64K) (VHH)
VHH: B5 VHH with Q1D, H13Q, T64K, A74S, K86R, Q110L
notes: as for B6
Work on B9 yielded a Kd [1] of 2.7 nM, a koff [1] of 0.00118 s⁻¹ and a kon [1] of 438000 M⁻¹ s⁻¹.

B10: 3LEC 4 (VHH)
VHH: QVQLQESGGGLVQPGGSLRLSCAASGSFFSINAMGWYRQAPGKQRELVAAITNQGRIAYADSVKGRFTISRDNAKNTVYLQMNSLKPEDTAVYYCGRPGWDYWGQGTQVTVSS
notes: as for B1
B10: binds (human Clec9A).

B11: 3LEC_89 (wild type) (VHH)
VHH: QVQLQESGGGLVQPGGSLRLSCAASGRIFSVNAMGWYRQAPGKQRELVAAITNQGAPTYADSVKGRFTISRDNAGNTVYLQMNSLRPEDTAVYYCKAFTRGDDYWGQGTQVTVSS
notes: pHEN6C periplasmic expression with C-terminal his6 tag, no HA tag
B11 was tested, and the Kd [1] was 1.74 nM, the koff [1] was 0.000725 s⁻¹ and the kon [1] was 416000 M⁻¹ s⁻¹.

B12: 3LEC_89_opt4 (E1D-Q5V-Q108L-A74S-G75K) (VHH)
VHH: B11 VHH with Q1D, Q5V, A74S, G75K, Q110L
notes: as for B6
For B12, the Kd [1] was 2.35 nM, the koff [1] was 0.000982 s⁻¹ and the kon [1] was 417000 M⁻¹ s⁻¹.

B13: 3LEC_89_opt2 (E1D-Q5V-Q108L-A74S) (VHH)
VHH: B11 VHH with Q1D, Q5V, A74S, Q110L
notes: as for B6
B13 showed a Kd [1] of 2.41 nM, a koff [1] of 0.000817 s⁻¹ and a kon [1] of 338000 M⁻¹ s⁻¹.

B14: 3LEC_89_opt3 (E1D-Q5V-Q108L-G75K) (VHH)
VHH: B11 VHH with Q1D, Q5V, G75K, Q110L
notes: as for B6
B14 was tested, and the Kd [1] was 2.56 nM, the koff [1] was 0.00112 s⁻¹ and the kon [1] was 438000 M⁻¹ s⁻¹.

B15: 3LEC_89_opt1 (E1D-Q5V-Q108L) (VHH)
VHH: B11 VHH with Q1D, Q5V, Q110L
notes: as for B6
B15 showed a Kd [1] of 2.2 nM, a koff [1] of 0.000861 s⁻¹ and a kon [1] of 391000 M⁻¹ s⁻¹.

B16: 3LEC 62 (VHH)
VHH: QVQLQESGGGLVQPGGSLRLSCAASGRIGSINSMGWYRQAPGKQREMVAAITNGGATVYADSVKGRFTISRDNAGNTVDLHMNSLRPEDSAVYYCTIWAADYQQYWGQGTQVTVSS
notes: as for B1
B16: binds (human Clec9A).

B17: 1LEC 27 (VHH)
VHH: QVQLQESGGGLVQAGESLRLSCAASGSSDSINAMGWYRQAPGKQRELVAAITSGGRSTYIDSAKGRATISRDNARNTAYLQMSSLKAEDTAVYYCTIWNRDRQQYWGQGTQVTVSS
notes: as for B1
B17: binds (human Clec9A).

B18: 2LEC 67 (VHH)
VHH: QVQLQESGGGLVQAGGSLRLSCAASGRTFPGYVMAWFRQSPGQEREFAAAINWRGGDTYYADSVKGRFTISRDNVKNTVFLQMNSLKPEDTAVYFCAARLTTEYDYAYWGQGTQVTVSS
notes: as for B1
B18: binds (human Clec9A).

B19: 2LEC 95 (VHH)
VHH: QVQLQESGGGLVQAGGSLRLSCEASGRTFSTYAMAWFRQAPGKERDLVAAISWSGGSTEYHDSVKGRFTISRDNTKNTVYLQMNSLKAEDTAVYYCAAEVEGSGREGNFYGASWYPGQGTQVTVSS
notes: Entry includes C-terminal AAA-HA-His tag (pMECS); only five His are printed in the text
B19: binds (human Clec9A).

B20: 2LEC 61 (VHH)
VHH: QVQLQESGGGLVQPGGSLRLSCAASGSIVSINSMGWYRQAPGKQRELVAAITDQGRTTYADSVKGRFTISRDDAKNKNTVYLQMNSLKAEDTAVYACKAFGRFDDYWGQGTQVTVSS
notes: as for B1
B20: binds (human Clec9A).

B21: 1LEC 61 (VHH)
VHH: QVQLQESGGGLVQPGGSLRLSCAASGGISSINSMGWYRQAPGNQRELVAAITNGGRTVYGDSVKGRFTISRDSAGNTVHLQMDSLRPEDTGVYYCKAFTRGDDYWGQGTQVTVSS
notes: as for B1
B21: binds (human Clec9A).

B22: 3LEC 94 (VHH)
VHH: QVQLQESGGGSVQAGGSLRLSCAASGRTFSSYAMAWFRQAPGMERELVAAISWSGGSTYYADSVKGRFTISRDNAENTVYLQMNSLKPEDTAVYYCAAEAEGSGREGNFYERSWYQGQGTQVTVSS
notes: as for B1
B22: binds (human Clec9A).

B23: 2LEC 83 (VHH)
VHH: QVQLQESGGGLVQAGGSLRLSCAASGRTLSSYTIGWYRQAPGKQRELVAAITNQGRRTYADSVKGRFTISRDNAKNTVYLQMDSLKSEDTAVYYCKGFSPTDDFWGQGTQVTVSS
notes: as for B1
B23: binds (human Clec9A).

B24: 3LEC 27 (VHH)
VHH: QVQLQESGGGLVQAGGSLRLSCAASVNIGTLNSMAWYREAPGKQRELVAGITGGGQITYANSVRGRFTVSRDIAKSTAYLQMNTLKPEDTAVYYCAAYDRSATPYWGQGTQVTVSS
notes: as for B1
B24: binds (human Clec9A).

B25: 1LEC 51 (VHH)
VHH: B24 VHH with G29D, E39Q, G54S, I73N, A78V, K86Q, A102S
notes: as for B1
B25: binds (human Clec9A).

B26: 3LEC 6 (VHH)
VHH: B24 VHH with A23V, T30S, A35V, E39Q, A40S, G54S, P104A
notes: as for B1
B26: binds (human Clec9A).

B27: 3LEC 9 (VHH)
VHH: QVQLQESGGGLVQAGGSLRVSCAASGRTLSNYAVGWWRQAPGKQREFVAAINWSSGGISYSNSAKGRFALSRDNAKNTVYLQMDSLKPEDTAVYYCAAASSVLSGTVDYWGQGTQVTVSS
notes: as for B1
B27: binds (human Clec9A).

B28: 3LEC 82 (VHH)
VHH: B27 VHH with V20L, G35A, W37F, F47L, N52W, S54A, S61A, A69V, V107A
notes: as for B1
B28: binds (human Clec9A).

B29: 3LEC 61 (VHH)
VHH: B27 VHH with G35A, W37F, S63A, V102I
notes: as for B1
B29: binds (human Clec9A).

B30: 2LEC 62 (VHH)
VHH: QVQLQESGGGLVQPGGSLRLSCAAYGSIFSINAMGWYRQAPGKERELVAGITTQGRITYGNSVRGRFTISGDNAKNTVYLQMKSLKPEDTAVYYCSAWGVKTGPESGSGTLEGQGTQVTVSS
notes: as for B1
B30: binds (human Clec9A).

B31: 2LEC 76 (VHH)
VHH: QVQLQESGGGLVQAGESLRLSCVVSGRTFSINAMGWYRQAPGKQRELVAAITNQGRLSYVDSVKGRFTISRDNAANTVYLQMNSLKPEDTAVYYCAAFQSSGIDWGQGTQVTVSS
notes: as for B1
B31: binds (human Clec9A).

B32: 2LEC 88 (VHH)
VHH: QVQLQESGGGLVQPGGSLRLSCTASGSFFSINAMGWYRQAPGNQRELVAAITNGGRIAYTDSVKGRFTISNDNAKNTVYLQMNSLKPEDTDVYYCNAKAIPIYGSTAEDYWGQGTQVTVSS
notes: as for B1
B32: binds (human Clec9A).
